We go through four molecules from publication PMC10216364, “Structural Insight into the Mechanism of σ32-Mediated Transcription Initiation of Bacterial RNA Polymerase” (Biomolecules, 2023).

Data set [1] addresses RNA polymerase core enzyme;chimera sigma32-28 (E. coli;E. coli) (UniProt P0A7Z4+P0A8V2+P0A8T7+P0A800+P0AGB3). Description: fluorescence polarization. As to conditions: apparent Kd; FP: 10 mM Tris-HCl pH 7.7, 100 mM NaCl, 1 mM DTT, 1% glycerol, 0.025% Tween-20, 5 nM DNA, 10-320 nM holoenzyme, room temperature, 5 min; stopped-flow: 10 mM …. A general note: Polarisation of emitted light reports the rotation of a fluorescent probe.

The target of data set [2] is RNA polymerase core enzyme;chimera sigma32-38 (E. coli;E. coli) (UniProt P0A7Z4+P0A8V2+P0A8T7+P0A800+P0AGB3). Description: fluorescence polarization. The note with it: apparent Kd; FP: 10 mM Tris-HCl pH 7.7, 100 mM NaCl, 1 mM DTT, 1% glycerol, 0.025% Tween-20, 5 nM DNA, 10-320 nM holoenzyme, room temperature, 5 min; stopped-flow: 10 mM ….
For data set [3], the target named is RNA polymerase core enzyme;sigma32 (RpoH) wild type (E. coli;E. coli, UniProt P0A7Z4;P0A8V2;P0A8T7;P0A800;P0AGB3 1-329;1-1342;1-1407;1-91;1-284, |). In words: fluorescence polarization; apparent Kd; FP: 10 mM Tris-HCl pH 7.7, 100 mM NaCl, 1 mM DTT, 1% glycerol, 0.025% Tween-20, 5 nM DNA, 10-320 nM holoenzyme, room temperature, 5 min; stopped-flow: 10 mM Tris-HCl pH 7.7, 20 mM NaCl, 10 mM MgCl2, 1 mM DTT. As to conditions: protein: recombinant;recombinant, tags: ;His tag (pET28a, Ni-NTA), chain copies: 2;1;1;1;1.

Data set [4] addresses T1, β′ subunit of E. coli RNAP (E. coli, UniProt P0A8T7 1-1407).
T1 construct: RNA polymerase subunit beta' (RpoC), E. coli; stood in the assay as a subunit of the RNAP core enzyme; A subunit of m2; also called RNAP-β′; RpoC; source: E. coli BL21(DE3), co-expressed from pET28a-rpoA-rpoB-rpoC-rpoZ, purified as part of the RNAP core enzyme
Description: cryo-EM structure; σ32-RPo: RNAP core enzyme, σ32 and dnaKp1 promoter scaffold mixed at 1:4:1.2 molar ratios, 4 °C overnight, purified on Superdex 200; 20 mM Tris-HCl pH 8.0, 0.1 M NaCl, 1% glycerol, 1 mM DTT; promoter DNA present. The note with it: both partners purified.

Data set [5] deals with T2, β subunit of E. coli RNAP (E. coli, UniProt P0A8V2 2-1342).
T2 construct: RNA polymerase subunit beta (RpoB), E. coli; stood in the assay as a subunit of the RNAP core enzyme; A subunit of m2; also called RpoB; bears the β-flap tip helix (βFTH); source: E. coli BL21(DE3), co-expressed from pET28a-rpoA-rpoB-rpoC-rpoZ, purified as part of the RNAP core enzyme
Described as above. As to conditions: both partners purified.

In data set [6] the target is RNA polymerase core enzyme;sigma32 L253A (E. coli;E. coli, UniProt P0A7Z4;P0A8V2;P0A8T7;P0A800;P0AGB3 1-329;1-1342;1-1407;1-91;1-284, |L253A). In words: fluorescence polarization; apparent Kd; FP: 10 mM Tris-HCl pH 7.7, 100 mM NaCl, 1 mM DTT, 1% glycerol, 0.025% Tween-20, 5 nM DNA, 10-320 nM holoenzyme, room temperature, 5 min; stopped-flow: 10 mM Tris-HCl pH 7.7, 20 mM NaCl, 10 mM MgCl2, 1 mM DTT. As to conditions: protein: recombinant;recombinant; tags: ;His tag (pET28a, Ni-NTA); chain copies: 2;1;1;1;1; blunt.

Data set [7] addresses RNA polymerase core enzyme;sigma32 R266A (E. coli;E. coli, UniProt P0A7Z4;P0A8V2;P0A8T7;P0A800;P0AGB3 1-329;1-1342;1-1407;1-91;1-284, |R266A). The data set is described as above. As to conditions: protein: recombinant;recombinant; tags: ;His tag (pET28a, Ni-NTA); chain copies: 2;1;1;1;1; blunt.
The target of data set [8] is RNA polymerase core enzyme;sigma32 E265A (E. coli;E. coli, UniProt P0A7Z4;P0A8V2;P0A8T7;P0A800;P0AGB3 1-329;1-1342;1-1407;1-91;1-284, |E265A). The description is as above. As to conditions: protein: recombinant;recombinant; tags: ;His tag (pET28a, Ni-NTA); chain copies: 2;1;1;1;1; blunt.
For data set [9], the target named is RNA polymerase core enzyme;sigma32 R268A (E. coli;E. coli, UniProt P0A7Z4;P0A8V2;P0A8T7;P0A800;P0AGB3 1-329;1-1342;1-1407;1-91;1-284, |R268A). Described as above. As to conditions: protein: recombinant;recombinant; tags: ;His tag (pET28a, Ni-NTA); chain copies: 2;1;1;1;1; blunt.

“CCTTGAAGACGTGGTTTACGACCCCATTTAGTAG / GGGGTCGTAAACCACGTCTTCAAGG [long promoter DNA, -35 to -10 bubble]”: the Kd in [1] is 9.22 nM; in [2], 8.34 nM.

B1: long promoter DNA, -35 to -10 bubble (mixed)
DNA 1: CCTTGAAGACGTGGTTTACGACCCCATTTAGTAG
DNA 2: GGGGTCGTAAACCACGTCTTCAAGG
With B1, the Kd in [3] (25 bp duplex, 3' overhang 9 nt on S5 (fork-junction type)) came to 14.9 nM.

B2: E. coli σ^32 (natural protein)
chain: MTDKMQSLALAPVGNLDSYIRAANAWPMLSADEERALAEKLHYHGDLEAAKTLILSHLRFVVHIARNYAGYGLPQADLIQEGNIGLMKAVRRFNPEVGVRLVSFAVHWIKAEIHEYVLRNWRIVKVATTKAQRKLFFNLRKTKQRLGWFNQDEVEMVARELGVTSKDVREMESRMAAQDMTFDLSSDDDSDSQPMAPVLYLQDKSSNFADGIEDDNWEEQAANRLTDAMQGLDERSQDIIRARWLDEDNKSTLQELADRYGVSAERVRQLEKNAMKKLRAAIEA
notes: RNA polymerase sigma factor σ32 (RpoH), E. coli; the N-terminus was not modelled in the structure; the tag and its end are not described; also called sigma 32; RpoH; source: E. coli BL21(DE3), plasmid pET28a-rpoH, purified (Ni-NTA, HiTrap Heparin)
Turning to B2, the binding result in [4] and in data set [5] was “binds” in each case.

B3: short -35 element DNA (dsDNA)
DNA 1: CCTTGAAGACGTGG
DNA 2: CCACGTCTTCAAGG
Regarding B3, the Kd in data set [6] was 38.8 nM; in data set [3] (blunt) it was 28.4 nM; in [7], 54.9 nM; in [8], 45.9 nM; in [9], 46.7 nM.
